Source: article PMC7585440, “Sclerostin inhibits Wnt signaling through tandem interaction with two LRP6 ectodomains” (Nature Communications, 2020)

T1: human LRP6 E1E2 (P21-P630) with a C-terminal 10x His tag (human, UniProt O75581 21-630, labeled with the dye NT-647 in the MST experiments (legends: Cy-5 dye-labeled))
T1 construct: low-density lipoprotein receptor-related protein 6 (LRP6), human, ectodomains E1 and E2, residues P21-P630; also called LPR6 E1E2; source: High Five insect cells, secreted, purified (Ni-NTA, HiTrapQ, SEC); for the crystal co-expressed with SOSTtr177
T1 sequence (looked up): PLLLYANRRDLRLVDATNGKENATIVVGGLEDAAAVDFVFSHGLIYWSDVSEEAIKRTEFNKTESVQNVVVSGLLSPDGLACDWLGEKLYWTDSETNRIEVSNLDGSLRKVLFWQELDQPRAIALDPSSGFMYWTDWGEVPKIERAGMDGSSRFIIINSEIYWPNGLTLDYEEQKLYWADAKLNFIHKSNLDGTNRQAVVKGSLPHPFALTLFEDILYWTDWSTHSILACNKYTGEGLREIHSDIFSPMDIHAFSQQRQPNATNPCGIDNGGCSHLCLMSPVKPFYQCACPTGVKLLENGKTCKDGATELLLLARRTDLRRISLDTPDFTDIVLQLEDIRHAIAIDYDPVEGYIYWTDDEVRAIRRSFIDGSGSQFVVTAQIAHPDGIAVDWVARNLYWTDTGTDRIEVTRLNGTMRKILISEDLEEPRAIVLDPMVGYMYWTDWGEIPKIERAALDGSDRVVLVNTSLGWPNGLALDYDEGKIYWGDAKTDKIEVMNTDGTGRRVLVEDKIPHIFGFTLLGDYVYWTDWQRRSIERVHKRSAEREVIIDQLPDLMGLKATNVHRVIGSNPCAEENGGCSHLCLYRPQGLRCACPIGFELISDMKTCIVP

T2: human LRP6 E1E2 with a C-terminal 10× His tag, labeled with the dye NT-647 (human, UniProt O75581 21-630, dye NT-647 (Monolith NT Protein Labeling kit))
T2 construct: Low-density lipoprotein receptor-related protein 6 (LRP6), human, ectodomains E1 and E2; the limits P21-P630 are printed for the co-expression construct; the MST construct was cloned into another vector (pAcGP67A); also called Labeled LRP6 E1E2; source: High Five insect cells (pAcGP67A), purified (Ni-NTA, HiTrapQ, SEC), no tag cleavage; not shown: His10, C-terminal, kept
T2 sequence (looked up): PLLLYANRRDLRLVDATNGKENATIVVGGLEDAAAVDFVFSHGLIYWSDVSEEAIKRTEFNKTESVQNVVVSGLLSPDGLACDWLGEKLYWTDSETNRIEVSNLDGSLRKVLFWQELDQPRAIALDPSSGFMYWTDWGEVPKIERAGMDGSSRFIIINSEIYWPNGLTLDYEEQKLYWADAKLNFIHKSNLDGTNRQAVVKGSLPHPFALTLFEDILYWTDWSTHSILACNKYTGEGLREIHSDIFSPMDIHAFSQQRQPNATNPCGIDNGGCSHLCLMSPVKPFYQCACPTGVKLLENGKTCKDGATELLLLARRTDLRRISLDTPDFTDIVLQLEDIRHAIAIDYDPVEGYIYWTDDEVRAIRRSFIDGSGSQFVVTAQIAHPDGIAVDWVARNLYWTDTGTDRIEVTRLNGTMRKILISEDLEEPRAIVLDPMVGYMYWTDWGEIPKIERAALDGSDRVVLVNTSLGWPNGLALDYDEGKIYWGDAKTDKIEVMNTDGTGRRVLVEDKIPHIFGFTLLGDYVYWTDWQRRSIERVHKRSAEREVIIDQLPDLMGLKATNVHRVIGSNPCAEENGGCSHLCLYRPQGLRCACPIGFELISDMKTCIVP

T3: human LRP6 E1 (P21-D325) with a C-terminal His tag (human, UniProt O75581 21-325, labeled with the dye NT-647 in the MST experiments (legends: Cy-5 dye-labeled))
T3 construct: low-density lipoprotein receptor-related protein 6 (LRP6), human, ectodomain E1, residues P21-D325; The methods name a 10x His tag; also called LPR6 E1; source: High Five insect cells, secreted, purified (Ni-NTA, HiTrapQ, SEC)
T3 sequence (looked up): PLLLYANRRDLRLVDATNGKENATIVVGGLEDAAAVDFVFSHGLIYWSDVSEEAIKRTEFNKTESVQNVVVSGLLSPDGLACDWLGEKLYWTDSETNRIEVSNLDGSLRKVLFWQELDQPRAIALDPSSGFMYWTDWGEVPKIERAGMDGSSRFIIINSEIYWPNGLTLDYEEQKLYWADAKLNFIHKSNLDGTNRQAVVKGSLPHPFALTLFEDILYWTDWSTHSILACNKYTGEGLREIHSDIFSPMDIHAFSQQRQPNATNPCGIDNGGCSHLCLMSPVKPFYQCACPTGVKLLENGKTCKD


Experiments:
Conditions in all cases: both partners purified
[1] = target: T1, human LRP6 E1E2 (P21-P630) with a …; assay: MST; labeled LRP6 E1E2 or LRP6 E1 (~5 nM) titrated with unlabeled Smo-SOST, MBP-SOST, tags or peptides; 20 mM Tris-Cl pH 7.0, 200 mM NaCl, 0.5 mg/ml BSA, 0.05% Tween 20; 22 °C; three independent experiments
[2] = target: T2, human LRP6 E1E2 with a C-terminal 10× …; assay: MST; LRP6 E1E2 or E1 labeled with NT-647 at ~5 nM, unlabeled SOST proteins or peptides titrated; 20 mM Tris-Cl pH 7.0, 200 mM NaCl, 0.5 mg/ml BSA, 0.05% Tween 20; 22 °C; Monolith NT.115 Pico
[3] = target: T3, human LRP6 E1 (P21-D325) with a …; assay: MST; labeled LRP6 E1E2 or LRP6 E1 (~5 nM) titrated with unlabeled Smo-SOST, MBP-SOST, tags or peptides; 20 mM Tris-Cl pH 7.0, 200 mM NaCl, 0.5 mg/ml BSA, 0.05% Tween 20; 22 °C; three independent experiments

Row | Kd [1] | Kd [2] | Binder | also measured
1 | 290 nM | – | human SOSTtr204 (Q24-A204) with an N-terminal His6-SUMO tag (domain or fragment, sclerostin (SOST), human, residues Q24-A204; also called Smo-SOSTtr204; source: High Five insect cells, secreted, purified; tag not cleaved; not shown: His6, N-terminal, kept; SUMO, N-terminal, kept) QGWQAFKNDATEIIPELGEYPEPPPELENNKTMNRAENGGRPPHHPFETKDVSEYSCRELHFTRYVTDGPCRSAKPVTELVCSGQCGPARLLPNAIGRGKWWRPSGPDFRCIPDRYRAQRVQLLCPGGEAPRARKVRLVASCKCKRLTRFHNQSELKDFGTEAARPQKGRKPRPRARSAKA | –
2 | 600 nM | – | human SOSTtr187 (Q24-A187) with an N-terminal His6-SUMO tag (domain or fragment, sclerostin (SOST), human, residues Q24-A187; also called Smo-SOSTtr187; source: High Five insect cells, secreted, purified; tag not cleaved; not shown: His6, N-terminal, kept; SUMO, N-terminal, kept) QGWQAFKNDATEIIPELGEYPEPPPELENNKTMNRAENGGRPPHHPFETKDVSEYSCRELHFTRYVTDGPCRSAKPVTELVCSGQCGPARLLPNAIGRGKWWRPSGPDFRCIPDRYRAQRVQLLCPGGEAPRARKVRLVASCKCKRLTRFHNQSELKDFGTEAA | –
3 | – | 1000 nM | SOST∆loop2 with an N-terminal His6-SUMO tag (natural protein) QGWQAFKNDATEIIPELGEYPEPPPELENNKTMNRAENGGRPPHHPFETKDVSEYSCRELHFTRYVTDGPCRSAKPVTELVCSGQCGPAGSGGSGPDFRCIPDRYRAQRVQLLCPGGEAPRARKVRLVASCKCKRLTRFHNQSELKDFGTEAARPQKGRKPRPRARSAKANQAELENAY | –
4 | – | – | human SOSTtr169 (Q24-R169) with an N-terminal His6-SUMO tag (domain or fragment, sclerostin (SOST), human, residues Q24-R169; also called Smo-SOSTtr169; source: High Five insect cells, secreted, purified; tag not cleaved; not shown: His6, N-terminal, kept; SUMO, N-terminal, kept) QGWQAFKNDATEIIPELGEYPEPPPELENNKTMNRAENGGRPPHHPFETKDVSEYSCRELHFTRYVTDGPCRSAKPVTELVCSGQCGPARLLPNAIGRGKWWRPSGPDFRCIPDRYRAQRVQLLCPGGEAPRARKVRLVASCKCKR | Kd [3]: 870 nM
5 | – | 900 nM | SOST_(tr169) with an N-terminal His6-SUMO tag (domain or fragment, human, UniProt Q9BQB4 24-169, looked up, has neither the HNQS region nor the basic-residue cluster; also called Smo-SOST mutant tr169; source: High Five insect cells (pAcGP67A), purified (Ni-NTA, HiTrapQ, SEC), no tag cleavage; not shown: His6, N-terminal, kept; SUMO, N-terminal, kept) QGWQAFKNDATEIIPELGEYPEPPPELENNKTMNRAENGGRPPHHPFETKDVSEYSCRELHFTRYVTDGPCRSAKPVTELVCSGQCGPARLLPNAIGRGKWWRPSGPDFRCIPDRYRAQRVQLLCPGGEAPRARKVRLVASCKCKR | –
6 | 680 nM | – | human SOSTtr178 (Q24-E178) with an N-terminal His6-SUMO tag (domain or fragment, sclerostin (SOST), human, residues Q24-E178; also called Smo-SOSTtr178; source: High Five insect cells, secreted, purified; tag not cleaved; not shown: His6, N-terminal, kept; SUMO, N-terminal, kept) QGWQAFKNDATEIIPELGEYPEPPPELENNKTMNRAENGGRPPHHPFETKDVSEYSCRELHFTRYVTDGPCRSAKPVTELVCSGQCGPARLLPNAIGRGKWWRPSGPDFRCIPDRYRAQRVQLLCPGGEAPRARKVRLVASCKCKRLTRFHNQSE | –
